Values of other authors as cited in publication doi:10.1101/2022.07.01.498456.

Legend:
[1] = target: Glu35 (UniProt position 53, CAAKFESNFNT); assay: other; conditions: native HEWL, ligand-free (inferred; not explicitly stated)
[2] = target: Asp52 (UniProt position 70, TDGSTDYGILQ); assay: other; conditions: native HEWL, ligand-free (inferred; not explicitly stated)

Hen egg-white lysozyme (lysozyme C) (Gallus gallus)
pKa [1]: 6.2 | pKa [2]: 3.6
